Values of other authors as cited in publication PMC10876879, “Sustained silencing peanut allergy by xanthopurpurin is associated with suppression of peripheral and bone marrow IgE-producing B cell” (Frontiers in Immunology, 2024).

Tested on: IgE
Parameters: method as in PMID 15025403, PMID 12637608
Conditions: double-blind, randomized trial, 2003

B1: TNX-901: anti-IgE antibody (antibody, chains of the INN, looked up, V domains shown)
VH: QVQLVQSGAEVKKPGASVKVSCKASGYTFSMYWLEWVRQAPGHGLEWVGEISPGTFTTNYNEKFKARATFTADTSTNTAYMELSSLRSEDTAVYYCARFSHFSGSNYDYFDYWGQGTLVTVSS
VL: DILLTQSPGTLSLSPGERATLSCRASQSIGTNIHWYQQKPGQAPRLLIKYASESISGIPSRFSGSGSGTDFTLTISRLEPEDFAMYYCQQSDSWPTTFGQGTKVEIK
Threshold of the sensitivity of patients to peanut: significantly increased
